Values belong to the binder of their own block, whether it stands above or below them.
Experiments:
[1] = molecular target: T1, CD74 disordered region peptide (CLIP), PPKPVSKMRMATPLLMQALPMGALP (biotin label); experiment: modified sandwich ELISA, fluorescence grade by the table's key
T1 construct: also called CD74 Peptide
T1 peptide: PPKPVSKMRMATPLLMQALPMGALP
Protocol: (§1) Binder proteins were coated on the surface of a high binding capacity 96 well plate by incubating 100 μL of protein at 5 μg/mL in a coating solution (10 mM Tris pH 8.8, 50 mM NaCl), overnight at 4 C. The next morning, the coating solution was aspirated out and wells were washed once with 300 μL ELISA wash buffer (1×PBS, 0.05% Tween-20) and solution was aspirated out. The wells were blocked with 200 μL of a blocking buffer (1×PBS, 0.05% Tween-20, 3% BSA) at room temperature for 1 hour. After one hour, the blocking solution was aspirated out and 100 μL of biotinylated polypeptide in a binding buffer (1×PBS, 0.05% Tween-20, 0.5% BSA) at various concentrations was added to the appropriate well and incubated for 20 minutes. Peptide solution was aspirated out after 20 minutes and wells were washed 5 times with 300 μL of ELISA wash buffer. To detect the biotinylated peptide, 100 μL of streptavidin-HRP (50 ng/ml) was added to each well and incubated for 1 hour. The wells were subsequently washed 5 times with 300 μL of ELISA wash buffer. 100 μL of QuantaBlu Fluorogenic Peroxidase substrate solution was added to each well, incubated for 30 minutes and reaction stopped by adding 100 μL of stop solution. Fluorescent signal from each well was measured using a Biotek Cytation5 plate reader by exciting the fluorophore at […] and measuring emission at 420 nm. Fluorescent signals were plotted as a function of polypeptide concentration.

[2] = molecular target: T2, CYSLTR2 N-terminal disordered region peptide, MERKFMSLQPSISVSEMEPNGTFSNNNSRNCTIENFKREFFP (biotin label); experiment: ELISA: scaffold coated on plate, biotinylated peptide titrated, streptavidin-HRP fluorescence
T2 construct: also called CysLT2; CysLT2r
T2 peptide: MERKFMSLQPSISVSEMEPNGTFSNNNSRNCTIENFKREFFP
Protocol: as §1

[3] = molecular target: T3, KAAG1 disordered region peptide, PGAAAAHLPRWPPPQLAASRREA (biotin label); experiment: as above
T3 construct: also called KAAG1 Peptide
T3 peptide: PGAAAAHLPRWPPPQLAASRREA
Protocol: as §1

MERKFMSLQPSISVSEMEPNG = molecular target: T4, MERKFMSLQPSISVSEMEPNG (N-terminal biotin); experiment: ELISA: scaffold coated on plate, N-terminally biotinylated peptide titrated, streptavidin-HRP fluorescence
T4 construct: also called CYSLTR2 N-terminal 21-mer peptide
T4 peptide: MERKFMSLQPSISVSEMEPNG
Protocol: as §1

[4] = molecular target: T5, CYSLTR2 short linear epitope peptide, SISVSEMEPNGTFSNNNSRNC (N-terminal biotin); experiment: as above
T5 peptide: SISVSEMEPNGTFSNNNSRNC
Protocol: as §1

[5] = molecular target: T6, TNFRSF13B disordered region peptide, LPPELRRQRSGEVENNSDNSGRYQ (biotin label); experiment: modified sandwich ELISA, grade by the table's key
T6 construct: also called TNFRSF13B Peptide
T6 peptide: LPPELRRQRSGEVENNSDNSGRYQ
Protocol: as §1

[6] = molecular target: T2, CYSLTR2 N-terminal disordered region …; experiment: modified sandwich ELISA, fluorescence grade by the table's key
Protocol: as §1

[7] = molecular target: T3, KAAG1 disordered region peptide, …; experiment: as above
Protocol: as §1

[8] = molecular target: T2, CYSLTR2 N-terminal disordered region …; experiment: ELISA, fluorescence at 10000 nM peptide divided by the no-scaffold control
Protocol: as §1

[9] = molecular target: T2, CYSLTR2 N-terminal disordered region …; experiment: modified sandwich ELISA (FIGS. 30A, 30B)
Protocol: as §1, with “Fluorescent signals were plotted as a function of polypeptide concentration.” left out

[10] = molecular target: T1, CD74 disordered region peptide (CLIP), …; experiment: ELISA: scaffold coated on plate, biotinylated peptide titrated, streptavidin-HRP fluorescence
Protocol: as §1

[11] = molecular target: T7, KCNA6 short linear epitope peptide, QQQEQQPASGGGGQNGQQAMS (biotin label); experiment: as above
T7 construct: also called KCNA6 Peptide
T7 peptide: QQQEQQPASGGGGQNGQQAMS
Protocol: as §1

[12] = molecular target: T6, TNFRSF13B disordered region peptide, …; experiment: as above
Protocol: as §1

[13] = molecular target: T5, CYSLTR2 short linear epitope peptide, …; experiment: as above
Protocol: as §1

[14] = molecular target: T8, CD40LG short linear epitope peptide, NKEETKKENSFEMQKGDQNPQIAAH (biotin label); experiment: as above
T8 construct: also called CD40LG Peptide
T8 peptide: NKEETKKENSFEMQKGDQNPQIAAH
Protocol: as §1

[15] = molecular target: T9, GMERKFMSLQPSISVSEMEPNGTFSNNNSRNCTIENFKREFFP (biotinylated, position not given); experiment: as above
T9 construct: also called CYSLTR2 (longer peptide of the disordered region)
T9 peptide: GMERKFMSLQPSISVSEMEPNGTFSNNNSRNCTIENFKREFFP
Protocol: as §1

[16] = molecular target: T10, 25 amino acid epitope of CLIP (CD74); experiment: BLI (Octet RED), biotinylated peptide on streptavidin sensor
T10 construct: also called CLIP Peptide
Protocol: Streptavidin sensor tips for the BLI instrument were equilibrated in an equilibration buffer (1×PBS, 0.05% Tween 20, 0.5% BSA) for 5 minutes. Biotinylated polypeptide in the equilibration buffer at 0.5 μM was loaded on the streptavidin sensor over 60 s. After substrate loading, the sensor tips were washed in the equilibrating buffer for 5 minutes to block non-specific binding and to obtain a baseline reading. Peptide loaded and blocked tips were then introduced into wells containing polypeptides in the equilibrating buffer at varying concentrations. The binding and dissociation data are fit using the OCTET software to obtain kₒₙ, koff and consequently KD, the binding affinity.

[17] = molecular target: T11, Urotensin-2 receptor N-terminal peptide, MALTPESPSSFPGLAATGSSVPEPPGGPNATLNSSWASPTEPSSLEDLVATGTI (biotin label); experiment: modified sandwich ELISA, grade by the table's key
T11 construct: also called Urotensin IIR; GPCR2 (Urotensin II)
T11 peptide: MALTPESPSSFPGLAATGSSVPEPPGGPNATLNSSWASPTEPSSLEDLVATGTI
Protocol: as §1

[18] = molecular target: T12, CRACM disordered region polypeptide; experiment: modified sandwich ELISA, fluorescence grade by the table's key
T12 construct: domain: disordered region
Protocol: as §1

fluorescent signal [1]: > 400000 fluorescentsignal
binding result [2]: no binding (tested: 10000 nM)
binding result [3]: no binding (tested: 10000 nM)
B1: engineered scaffold protein S171 (designed binder)
chain: GDTRPRFLWQLKWECHFYNGTERVRLNERCNYNQEESVRFDSDVGEYRAVTELGRPDAEFSNSQKDNLEQRRAAVDTLCRHNYGVGESFTVQRRSGGGIKEEHVINQAEYYLNPDQSGEFKFDFDGDEIFHVDMAKKETVWRLEEFGRFAIIEAYGALANIAVDKANLEIMTKQSNYT

binding result (MERKFMSLQPSISVSEMEPNG): no binding (tested: 10000 nM)
binding result [4]: binds
fluorescent signal [6]: 250000 to 400000 fluorescentsignal
fluorescent signal [1]: > 400000 fluorescentsignal
fluorescent signal [7]: 250000 to 400000 fluorescentsignal
Fold Change (Relative Binding) [8]: 37.2 x
Relative Binding (signal over the no-scaffold control) [8]: 37.2 x
fold higher affinity compared to a non-specific protein binder [9]: > 65 fold
EC50 (read off the curve) [10]: ~500 nM
B2: engineered scaffold protein S090 (designed binder)
chain: IKEEHSIRQNEMYLNPDQSGLFEFHLDGQPIFRVDMQKKRTKWQLEEFGRFASFEAQGALANIAVDKANLEIMTKRSNQSEAGSHSWQLIFVCEFHEGTESVRLSERCYYNQELSVSFNSDVGEYRAVTELGRPDAEYWNSQKDLLEQRRAAVDTYCRHNYGVGESFTVQRRGGSHHHHHHLE
notes: also called scaffold v1.2; v1.2
binding result [5]: no binding (tested: <5000 (fluorescence, key))

binding result [11]: no binding (tested: 10000 nM)
binding result [12]: no binding (tested: 10000 nM)
binding result [13]: binds
binding result [14]: no binding (tested: 10000 nM)
binding result [3]: no binding (tested: 10000 nM)
binding result [15]: binds
B3: engineered scaffold protein S194 (designed binder)
chain: MGIKEEHVINQAEYYLNPDQSGEFKFDFDGDEIFHVDMAKKETVWRLEEFGRFASFEAQGALAHIAVDKANLEIMTKRSNYTPMGGGSKARMATGALAQAGGSGGSGDTRPRFLWQLKYECHFFNGTERVRLNERCIYNQEESVRFDSDVGEYRAVTELGRPDAEQWNSQKDHLEQRRAAVDTKCRHNYGVGESFTVQGGSHHHHHH

binding result (MERKFMSLQPSISVSEMEPNG): no binding (tested: 10000 nM)
binding result [4]: binds
fluorescent signal [6]: 100000 to 250000 fluorescentsignal
binding result [11]: no binding (tested: 10000 nM)
binding result [12]: no binding (tested: 10000 nM)
binding result [14]: no binding (tested: 10000 nM)
binding result [3]: no binding (tested: 10000 nM)
binding result [15]: binds
B5: engineered scaffold protein S177 (designed binder)
chain: MIKEEHVINQAEYYLNPDQSGEFKFDFDGDEIFHVDMAKKETVWRLEEFGRFASFEAQGALAHIAVDKANLEIMTKRSNYTPMGDTRPRFLWQLKYECHFFNGTERVRLNERCIYNQEESVRFDSDVGEYRAVTELGRPDAEQWNSQKDHLEQRRAAVDTKCRHNYGVGESFTVQGGSHHHHHHLE

fluorescent signal [1]: > 400000 fluorescentsignal
binding result [2]: no binding (tested: 10000 nM)
binding result [3]: no binding (tested: 10000 nM)
B6: engineered scaffold protein S164 (designed binder)
chain: GIKEEHSIRQNEKYNNPDQSGNFEFHLDGQPIFRVDMQKKRTKWQLEEFGRFASFEAQGALANIAVFKINLEIMTKRSNQSEAGSHSWQLNFTCEFHEGTESVRLSERSYYNQENFVSFNSDVGEYRATTELGRPMAEYVNSQKDTLEQRRAAVDTYCRHNYGVGEYFTVQRR

The remaining lines, values behind:

B4: engineered scaffold protein S005 (designed binder)
chain: MIKEEHVIIQAEFYLNPDQSGEFMFDFDGDEIFHVDMAKKETVWRLEEFGRFASFEAQGALANIAVDKANLEIMTKRSNYTPMGDTRPRFLWQLKFECHFFNGTERVRLLERCIYNQEESVRFDSDVGEYRAVTELGRPDAEYWNSQKDLLEQRRAAVDTYCRHNYGVGESFTVQGGSHHHHHHLE
notes: Derived from MHC II; also called scaffold v1.1; v1.1
Kd [16]: 840 nM
binding result [5]: no binding (tested: <5000 (fluorescence, key))
binding result [17]: no binding (tested: <5000 (fluorescence, key))
fluorescent signal [18]: 100000 to 250000 fluorescentsignal
fluorescent signal [6]: 100000 to 250000 fluorescentsignal
fluorescent signal [1]: > 400000 fluorescentsignal
Fold Change (Relative Binding) [8]: 18.5 x
Relative Binding (signal over the no-scaffold control) [8]: 18.5 x
EC50 (read off the curve) [10]: ~300 nM
binding result [13]: binds

B7: engineered scaffold protein S055 (designed binder)
chain: GSHSMRYNYTSVSRPGRGEPRFLSEGHVDDTQFVRFDSDAASPREEPRAPWIEQEGPEYWDRNTQIYKAQAQTDRESLRNLRGYYNQSEAGSHTLQSIYGCDVGPDGRLLRGHDQYYYDGKDYISLNEDLRSWTAADTAAQITQRKWEAAREAEQRRAYLEGECVEWLRRYLENGKDKLERADGGSHHHHHHLE
fluorescent signal [1]: > 400000 fluorescentsignal
fluorescent signal [7]: 50000 to 100000 fluorescentsignal

B8: engineered scaffold protein S056 (designed binder)
chain: GSHSMRYNYTSVSRPGRGEPRFLSEGHVDGQPFVRFDSDAASPREEPRAPWIEQEGPEYWDRNTQIYKAQAQTDRESLRNLRGYYNQSEAGLHSLNSIYVCDVGPDGRLLRGHDHYYYDGELYISLNEDLRSWTAADTAAQITQRKWEAAREAEQRRAYLEGECVEWLRRYLENGKDKLERADGGSHHHHHHLE
fluorescent signal [1]: > 400000 fluorescentsignal
fluorescent signal [7]: 50000 to 100000 fluorescentsignal

— patent US20250387450A1 (AIKIUM, published 2025)
